Source: the Immune Epitope Database (IEDB)

Key:
[1] = target: HLA-A*26:02; assay: IEDB peptide-MHC binding, purified MHC/competitive/fluorescence; filed as Kd, often an IC50 or EC50 that approximates it; ≥ and ≤ were set here for values at or beyond the usual limits of such assays; details: source organism: Mycobacterium tuberculosis C
[2] = target: HLA-A*68:02; assay: as above; details: source organism: Mycobacterium tuberculosis C
[3] = target: HLA-A*02:06; assay: as above; details: source organism: Mycobacterium tuberculosis C
[4] = target: HLA-A*26:01; assay: as above; details: source organism: Mycobacterium tuberculosis C
[5] = target: HLA-A*01:01; assay: IEDB peptide-MHC binding, purified MHC/direct/fluorescence; filed as Kd, often an IC50 or EC50 that approximates it; ≥ and ≤ were set here for values at or beyond the usual limits of such assays
[6] = target: HLA-B*58:01; assay: as above
[7] = target: HLA-B*40:01; assay: as above
[8] = target: HLA-B*18:01; assay: as above
[9] = target: HLA-B*07:02; assay: as above; details: source organism: Mycobacterium tuberculosis
[10] = target: HLA-A*31:01; assay: as above
[11] = target: HLA-B*15:17; assay: as above
[12] = target: HLA-B*15:01; assay: as above
[13] = target: HLA-B*27:05; assay: as above
[14] = target: HLA-B*57:01; assay: as above
[15] = target: HLA-B*46:01; assay: as above
[16] = target: HLA-A*69:01; assay: as above
[17] = target: HLA-B*48:01; assay: as above
[18] = target: HLA-A*11:01; assay: as above
[19] = target: HLA-A*01:01; assay: IEDB peptide-MHC binding, purified MHC/competitive/fluorescence; ≥ and ≤ were set here for values at or beyond the usual limits of such assays; details: source organism: Zaire ebolavirus
[20] = target: HLA-B*15:01; assay: IEDB peptide-MHC binding, purified MHC/competitive/fluorescence; filed as Kd, often an IC50 or EC50 that approximates it; ≥ and ≤ were set here for values at or beyond the usual limits of such assays; details: source organism: Vibrio parahaemolyticus K5030
[21] = target: HLA-A*11:01; assay: as above
[22] = target: HLA-A*03:01; assay: IEDB peptide-MHC binding, purified MHC/direct/fluorescence; filed as Kd, often an IC50 or EC50 that approximates it; ≥ and ≤ were set here for values at or beyond the usual limits of such assays
[23] = target: HLA-A*02:01; assay: as above
[24] = target: HLA-A*26:01; assay: as above; details: source organism: Vibrio parahaemolyticus RIMD 2210633
[25] = target: HLA-B*08:02; assay: as above; details: source organism: Vibrio parahaemolyticus RIMD 2210633
[26] = target: HLA-B*39:01; assay: as above; details: source organism: Vibrio parahaemolyticus RIMD 2210633
[27] = target: HLA-A*02:01; assay: IEDB peptide-MHC binding, purified MHC/competitive/radioactivity; ≥ and ≤ were set here for values at or beyond the usual limits of such assays; details: source organism: Homo sapiens
[28] = target: HLA-C*08:02; assay: IEDB peptide-MHC binding, purified MHC/direct/fluorescence; filed as Kd, often an IC50 or EC50 that approximates it; ≥ and ≤ were set here for values at or beyond the usual limits of such assays
[29] = target: HLA-B*51:01; assay: IEDB peptide-MHC binding, purified MHC/competitive/fluorescence; filed as Kd, often an IC50 or EC50 that approximates it; ≥ and ≤ were set here for values at or beyond the usual limits of such assays; details: source organism: Bacillus anthracis str. A2012
[30] = target: HLA-B*07:02; assay: as above; details: source organism: Bacillus anthracis str. A2012
[31] = target: HLA-B*35:01; assay: as above; details: source organism: Bacillus anthracis str. A2012
[32] = target: HLA-B*44:03; assay: IEDB peptide-MHC binding, purified MHC/competitive/radioactivity; filed as Kd, often an IC50 or EC50 that approximates it; ≥ and ≤ were set here for values at or beyond the usual limits of such assays; details: source organism: Homo sapiens
[33] = target: HLA-B*44:02; assay: as above; details: source organism: Homo sapiens
[34] = target: HLA-B*57:01; assay: as above; details: source organism: Homo sapiens
[35] = target: HLA-C*12:03; assay: IEDB peptide-MHC binding, purified MHC/direct/fluorescence; filed as Kd, often an IC50 or EC50 that approximates it; ≥ and ≤ were set here for values at or beyond the usual limits of such assays
[36] = target: HLA-B*15:42; assay: IEDB peptide-MHC binding, purified MHC/competitive/fluorescence; filed as Kd, often an IC50 or EC50 that approximates it; ≥ and ≤ were set here for values at or beyond the usual limits of such assays; details: source organism: Vibrio vulnificus YJ016
[37] = target: HLA-B*83:01; assay: as above; details: source organism: Vibrio vulnificus YJ016
[38] = target: HLA-C*04:01; assay: as above; details: source organism: Vibrio vulnificus YJ016
[39] = target: HLA-B*46:01; assay: as above; details: source organism: Vibrio vulnificus YJ016
[40] = target: HLA-B*45:06; assay: as above; details: source organism: Vibrio vulnificus YJ016
[41] = target: HLA-C*14:02; assay: as above; details: source organism: Vibrio vulnificus YJ016
[42] = target: HLA-B*35:01; assay: IEDB peptide-MHC binding, purified MHC/direct/fluorescence; filed as Kd, often an IC50 or EC50 that approximates it; ≥ and ≤ were set here for values at or beyond the usual limits of such assays; details: source organism: Vibrio vulnificus YJ016
[43] = target: HLA-C*06:02; assay: as above; details: source organism: Vibrio vulnificus YJ016
[44] = source organism: Mycobacterium tuberculosis
[45] = source organism: Vibrio parahaemolyticus
[46] = source organism: Camelpox virus M-96

Sequence: AVFPRYHPR
- Kd [1]: ≥ 20000 nM
- Kd [2]: 1910 nM
- Kd [3]: 2100 nM
- Kd [4]: 1670 nM
- Kd [5, 44]: ≥ 20000 nM
- Kd [6, 44]: ≥ 20000 nM
- Kd [7, 44]: ≥ 20000 nM
- Kd [8, 44]: ≥ 20000 nM
- Kd [9]: ≥ 20000 nM
- Kd [10, 44]: 4.7 nM
- Kd [11, 44]: ≥ 20000 nM
- Kd [12, 44]: ≥ 20000 nM
- Kd [13, 44]: ≥ 20000 nM
- Kd [14, 44]: ≥ 20000 nM
- Kd [15, 44]: ≥ 20000 nM
- Kd [16, 44]: ≥ 20000 nM
- Kd [17, 44]: ≥ 20000 nM
- Kd [18, 44]: 38 nM

Sequence: GPFDAVLYY
- IC50 [19]: ≥ 172000 nM

Sequence: LTESDMDYH
- IC50 [19]: 41600 nM

Sequence: NSSYWRQGY
- Kd [20]: ≥ 20000 nM
- Kd ([21]; source organism: Vibrio parahaemolyticus K5030): ≥ 20000 nM
- Kd [5, 45]: 93 nM
- Kd [6, 45]: ≥ 20000 nM
- Kd [7, 45]: ≥ 20000 nM
- Kd [8, 45]: ≥ 20000 nM
- Kd [22, 45]: ≥ 20000 nM
- Kd [10, 45]: ≥ 20000 nM
- Kd [23, 45]: ≥ 20000 nM
- Kd [11, 45]: 222 nM
- Kd [13, 45]: ≥ 20000 nM
- Kd [14, 45]: ≥ 20000 nM
- Kd [24]: 160 nM
- Kd [25]: ≥ 20000 nM
- Kd [15, 45]: ≥ 20000 nM
- Kd [16, 45]: ≥ 20000 nM
- Kd [26]: ≥ 20000 nM
- Kd [17, 45]: ≥ 20000 nM

Sequence: RQASLSISV
- IC50 [27]: 284 nM

Sequence: SCSRAIPQV
- IC50 [27]: 1470 nM

Sequence: SFGGFTFK
- Kd ([21]; source organism: Influenza A virus H3N2): 44.8 nM

Sequence: YLSSWTPVV
- Kd ([28]; source organism: Variola virus): 74 nM
- Kd [23, 46]: ≤ 1 nM
- Kd [16, 46]: 154 nM

Sequence: YPIVIAPAM
- Kd [29]: 1010 nM
- Kd [30]: 13.8 nM
- Kd [31]: ≤ 0.1 nM

Sequence: YTAVVPLVY
- Kd [32]: 5540 nM
- Kd [33]: 7780 nM
- Kd [34]: 208 nM
- Kd ([5]; source organism: Homo sapiens): 143 nM
- Kd ([6]; source organism: Homo sapiens): 63.1 nM
- Kd ([28]; source organism: Homo sapiens): ≥ 20000 nM
- Kd ([35]; source organism: Homo sapiens): 171 nM
- Kd ([22]; source organism: Homo sapiens): 4540 nM
- Kd ([12]; source organism: Homo sapiens): 410 nM
- Kd ([16]; source organism: Homo sapiens): 1310 nM
- Kd ([18]; source organism: Homo sapiens): 2500 nM

Sequence: YTMELCGAM
- Kd [36]: ≥ 5000 nM
- Kd [37]: ≥ 5000 nM
- Kd [38]: ≥ 5000 nM
- Kd [39]: 18 nM
- Kd [40]: ≥ 5000 nM
- Kd [41]: ≤ 0.1 nM
- Kd ([35]; source organism: Vibrio vulnificus YJ016): 88 nM
- Kd [42]: 28 nM
- Kd [43]: ≥ 20000 nM
